The data set is described as follows: yeast display, Sf9 membrane polyspecificity reagent, FACS + sequencing; frameworks hold sequencing errors. An outline of the steps: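 Galactose-induced (36–48 hours) yeast carrying a synthetic nanobody display library were exposed to 10% biotinylated, detergent-solubilized Sf9 membrane reagent at 4 °C for 1 hour. FACS followed streptavidin microbead enrichment, using low and high (top ~1%) gates for expression (anti-HA) and reagent binding (streptavidin). Colony PCR, MiSeq 2 × 250 sequencing and CDR-length filtering followed. Labels for polyreactivity reflect the gate of origin.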
In the case of “QVQLVESGGGLVQAGGSLRLSCAASGSNFPYNAMGWYRQAPGKERELVAAITGRGGSTYYADSVKGRFTISRDNAKNTVYLHMNSLKPEDTAVYYCAAVTRNQGYYRYYYWGQGTQVTVSS”, the “polyreactivity (PSR sort gate)” value was “high polyreactivity”. For “QVQLVESGGGLVQAGGSLRLSCAASGSNFRGNAMAWYRQAPGKERELVAAITYNDGGTYYADSVKGRFTISRDNAMNTVYLQMNLLKPEDTAVYYCAAVGTGNKSILYDYWGQGTQVTVSS” the value was “low polyreactivity”; for “QVQLVESGGGLVQAGGSLRLSCAASGSNFRPYAMGWYRQAPGKERELVAAISSSGGSTYYADSVKGRFTISGDNAKHTVYLQMNSLKPEDTAVYYCAKDGVSFYWLNKYYYWGQGTQVTVSS”, “low polyreactivity”; for “QVQLVESGGGLVQAGGSLRLSCAASGSNFRYYALGWYRQAPGKERELVAGNTGSTGRTYYADSVKGRFTISRDNAKNTVYLQMNRLKPEDTAVYYCATGIYRARTSSFRMGYWGQGTHVTVSS”, “low polyreactivity”. For “QVQLVESGGGLVQAGGSLRLSCAASGSNFRYYAMGWYSPAPGKERELVAAISQSGGSTYSADSVKGRFTISRDNAKTTVYLQMNSLKPEDTAVYYCAARRVDTRGHVRYRYYYWGQGTQVTVSS” the value was “high polyreactivity”.

With “QVQLVESGGGLVQAGGSLRLSCAASGSNFSFNGLGWYRQAPGKERGLVAAITTSGGSTYYADSVKGRFTISRDNAKNTVYLQMNSLTPEDTAVYYCAAVGPDNSLYEPMDYWGLGTQVTVSS”, the “polyreactivity (PSR sort gate)” value is recorded as “low polyreactivity”. To “QVQLVESGGGLVQAGGSLRLSCAASGSNFSSNAMGWYRQAPGKERELVAAISRSGVTTYYADSVKGRFTISRDNAKNTVYLQMNSLKPEDTAVYYCAGQPYSRLYGRYRGFQYKYVYWGHGTQVTVSS” belongs “low polyreactivity”; to “QVQLVESGGGLVQAGGSLRLSCAASGSNFTNYAMGWYRPAPGKERELVARITSSGSRTYYADSVKGRFTISRDNAKNTVYLQMNSLKPEDTAVYYCNAETYYLRYGRGYRRFDYWGQGTQVTVSS”, “high polyreactivity”; to “QVQLVESGGGLVQAGGSLRLSCAASGSNFVNNAMGWYRQAPGKERELVASITWSGGRTYYADSVKGRFTISRDNAKNTVDLQMNSLKPEDTAVYYCNKRQYSRTFRYGYWGQGTEVTVSS”, “high polyreactivity”.

As for “QVQLVESGGGLVQAGGSLRLSCAASGSNFVRNTMGWYRQAPGKESELVATISSGGRTNYADSVKGRFTISRDNAKNTVYLQLNSLKPEDTAVYYCNRPRWYGGSPYYYWGQGTQVTVSS”, the “polyreactivity (PSR sort gate)” value is “high polyreactivity”. To “QVQLVESGGGLVQAGGSLRLSCAASGSNFYFYAMGWYRHAPGKERELVAGITSGGITYYADSVKGRFTISRDNAKNTVYLQLNSLKPEDTAVYYCAADFTRRWSKSTPFDSWGQGTQVTVSS” belongs “high polyreactivity”; to “QVQLVESGGGLVQAGGSLRLSCAASGSNFYLYAMGWYRQAPGKERELVAAITSIGGSTYADSVKGRFTISRDNAKNTVYLQMNSLKPEDTAVYYCNTDEYPLTVQVQYYYWGQGTQVTVSS”, “low polyreactivity”.

On to “QVQLVESGGGLVQAGGSLRLSCAASGSNIDGYAMGRYRQAPGKEREFLAAISFSSASTYYADSVKGRFTISRDNAKNSVYLQMNSLKPEDTAVYYCNADFFESGGSIEYDSSGQGTQVTVSS”, for which the “polyreactivity (PSR sort gate)” value is “low polyreactivity”.

Regarding “QVQLVESGGGLVQAGGSLRLSCAASGSNIRSNAMGWYRQAPGKERELVAAISRTGGRTYYADSVKGRFTISRDNEKNTVYLQMKSLKPEYTAVYYCAASSSGSGGYWGQCTQVTVSS”, the “polyreactivity (PSR sort gate)” value is given as “high polyreactivity”. Take “QVQLVESGGGLVQAGGSLRLSCAASGSNLVWNAMGWYRQAPGKERELVAAIDRDTTTYYADSVKGRFTISRDNAKNTVYLQMNSLKPEDTAVYYCAAESWYYLYDYWGQGTQVTVSS”: the “polyreactivity (PSR sort gate)” value is recorded as “high polyreactivity”.

Consider “QVQLVESGGGLVQAGGSLRLSCAASGSNLYKYAMGWYRPAPGKERELVASITWSDGNTNYADSVKGRFTISRHNAKNTVYLQMNSLKPEDTAVYYCAADWRYILRGDDYWGQGTQVTVSS”, for which the “polyreactivity (PSR sort gate)” value is “low polyreactivity”. To “QVQLVESGGGLVQAGGSLRLSCAASGSNSPTMLMGGYRKAPGKERELVAAISGGGRTNYADSVKGRFTISRDNAKNTVYLQMNSLKPEETAVYYCAAGGYYQRTRGDWGQGTQVTVSS” belongs “high polyreactivity”. To “QVQLVESGGGLVQAGGSLRLSCAASGSNSYFNAMGWYRQAPGKERELVAAITSGGSTYYADSVKGRFTISRDNAKNTVYLQMNSLKPEDTAVYYCNAPLEWGVYAAQNWDDGYWGQGTQVTVSS” belongs “low polyreactivity”. To “QVQLVESGGGLVQAGGSLRLSCAASGSNVPSYAMGWYRQAPGKERELVAAINSGGGTNYADSVKGRFTISRDNAKNTVYVQMNSLKPEDTAVYYCAKSRYDYTKTEGGYWGQGTQVTVSS” belongs “low polyreactivity”. For the sequence “QVQLVESGGGLVQAGGSLRLSCAASGSNVYIYAMGWYRQAPGKERELVASINSGGSTNYADSVKGRFTISRDNAKNTVYLQMNSLKPEDTAVYYCNADVYDTYSPLGYYYWGQGTQVTVSS”, the “polyreactivity (PSR sort gate)” value is recorded as “low polyreactivity”. To “QVQLVESGGGLVQAGGSLRLSCAASGSPFGFNAMGWYRQAPGKERELVAAISRSGTRTYYADSVKGRFTISRDNEKNTVYLQMNSQKPEDTAVYFCAADSTLSRYDYWGQGTQVTVSS” belongs “high polyreactivity”.

As for “QVQLVESGGGLVQAGGSLRLSCAASGSPFLTNAMGWDRQAPGKERELVAAITWSTGSTYYADSVKGRFTISRDNAKNTVYLQMNSLKPEDTAVYYCNARSEVSYWWGGYWGEGTQVTVSS”, the “polyreactivity (PSR sort gate)” value is recorded as “low polyreactivity”. As to “QVQLVESGGGLVQAGGSLRLSCAASGSPFNYYAMGSYRQAPGKERELVAGINRGGSTNYADSVKGRFTISRDNAKNTVYLQMNSLKPEDTAVYYCAVRAYRWRSTLGLYYWGQGTQVTVSS”, the “polyreactivity (PSR sort gate)” value is “high polyreactivity”. In the case of “QVQLVESGGGLVQAGGSLRLSCAASGSPFRTYAIGWYRQAPGKERELVASIDSTGSTNYADSVKGRFTISRDNAKNTVYLQMNCLKAEVTAVYYCAAETYSYPPFYAYDYWGQGTQVTVSS”, the “polyreactivity (PSR sort gate)” value is “low polyreactivity”.

With “QVQLVESGGGLVQAGGSLRLSCAASGSPFVDNDMGWSRQAPGKDRELVAAAITARGGSTYYADSVKGRFTISRDNAKNTVYLQMNSLKPEDTAVYYCAAGRPGELDYWGQGTQVTVSS”, the “polyreactivity (PSR sort gate)” value is on record as “low polyreactivity”. To “QVQLVESGGGLVQAGGSLRLSCAASGSRFSHYSMGWYRQAPGKERDLVATITGTGVRTSYADSVKGRFTISRDNAKNTVYLQMNSLKAEDTAVYYCAADGDYDPNLYGYWGQGTQVTVSS” belongs “low polyreactivity”; to “QVQLVESGGGLVQAGGSLRLSCAASGSSFDDYTMVWYRQAPGKERELVADSTESGGTTYADSVKGRFTISRDNAKNTVYLQMYSLKPVDTAVYYCNADIYISPLVQVSKGYDYWGQGTQVTVSS”, “low polyreactivity”; to “QVQLVESGGGLVQAGGSLRLSCAASGSSFNSYAMGWYRQAPGKERELVASITRGGSTYYADSVKGRFTISRDNAKTTVYLQMNSLKPEDTAVYYCAARFTQHNYWAMDYRGQGTQVTVSS”, “high polyreactivity”. In the case of “QVQLVESGGGLVQAGGSLRLSCAASGSSFPRYAMAWYTPAPGKERELVAAISSGGSTYYADSVKGRFTISRDNAKNTVYLQMNSLKPEDTAVYYCTARRSRSRYDYWGQVTQVTVSS”, the “polyreactivity (PSR sort gate)” value is “high polyreactivity”. To “QVQLVESGGGLVQAGGSLRLSCAASGSSFRRNAMGWYRQAPGKERELVAAITRGGGSTYYADSVKGRFTISRDNAKNTVYLQMNSLKPEDNAVYYCAAQISATRETMDYWGQGTQVTVSS” belongs “high polyreactivity”. For “QVQLVESGGGLVQAGGSLRLSCAASGSSFRVYAMGWYRQAPGKERELVAAISGSGGSTYYADSVKGRFTISRDNAKNTVYLQMNSLKPVDTAVYYCAARSWYTEYYWGQCTQVTVSS” the value was “high polyreactivity”. To “QVQLVESGGGLVQAGGSLRLSCAASGSSFSYYTMGWYRQAPGKERELVAAITSGGPTNYADSVKGRFTISRDNAKKTVYLQMNSLKPEDTAVYYCAADLYYGWGYYYWGQGTQVTVSS” belongs “low polyreactivity”; to “QVQLVESGGGLVQAGGSLRLSCAASGSSFTGNAMGWYRQAPGKERELVASINGSSGSTYYADSVKGRFTISRDNAKNTVYLEMNSLKPEDTAVYYCNADTYYVEYTAFDYWGQGTQVTVSS”, “low polyreactivity”. For the sequence “QVQLVESGGGLVQAGGSLRLSCAASGSSFVLYAMGWYRQAPGKERELVAAISLSVGSTYYADSVKGRFTISRDNAKNTVYLQMNSLKPEDTAVYDCNARSSIVSYYWYHYWTREFDYWGQGTQVTVSS”, the “polyreactivity (PSR sort gate)” value was “low polyreactivity”. To “QVQLVESGGGLVQAGGSLRLSCAASGSSFYDNAMGWYRQAPAKERELVAAITWDGDGTYYADSVKGRFTISRDNAKNTVYLQMNSLKPEDTAVYYCAADYYLVGFDYYYWYGYWGQGTQVTVSS” belongs “low polyreactivity”. For “QVQLVESGGGLVQAGGSLRLSCAASGSSIYVYVMGWYRQAPGKERELVAVIDWRGGSTYYADSVKGRFTISRDNAKNTVYLQMNSLKPEDSSVYYCNKVAQFYYKLPYYKERDWGQGTQVTVSS” the value was “low polyreactivity”; for “QVQLVESGGGLVQAGGSLRLSCAASGSSKLRLWDGIDRRLGKKGSWLPLFVLVVLRNYADSVKGRFTISRDNAKNTVYLQMNSLKPEDTAVYYCAATPIGSGGWGDYWGQGTQVTVSS”, “low polyreactivity”; for “QVQLVESGGGLVQAGGSLRLSCAASGSSLTRNDMGWHRLAPGKERELVAAISFSGSDTYYADSVKGRFTISRDNAKNTVYLQMNSLKPEDTAVYYCAAEYGGYSKYLFIGRYYWGQGTQVTVSS”, “low polyreactivity”.

Consider “QVQLVESGGGLVQAGGSLRLSCAASGSSSRRMIMGRYRQAPGKERELVAAISGSGGSTYYADSVKGRFTISRDNAKNTVYLQMNSLKPEDTAVYYCAAVLQSCYGYEYWGQGTQVTVSS”, for which the “polyreactivity (PSR sort gate)” value is recorded as “high polyreactivity”. Regarding “QVQLVESGGGLVQAGGSLRLSCAASGSTFAANAMGWYRQAPGKERELVAAMTSSGGSTYYADSVKGRFTISRDNAKNTVYLQMNSLKPEDTAVYYCNKDIERYVRIYDSWGQGTQVTVSS”, the “polyreactivity (PSR sort gate)” value is “low polyreactivity”.

The values are drawn from the nanobody polyreactivity screen of Harvey et al. (2022).
